According to patent US20180086841A1 (Merck Sharp & Dohme, published 2018):

T1: His9G-tagged cynomolgus CD27 recombinant protein (cynomolgus, limits assumed)
T1 construct: In-house, transient transfection of HEK293 cells; also called Cyno CD27/His
T1 chain: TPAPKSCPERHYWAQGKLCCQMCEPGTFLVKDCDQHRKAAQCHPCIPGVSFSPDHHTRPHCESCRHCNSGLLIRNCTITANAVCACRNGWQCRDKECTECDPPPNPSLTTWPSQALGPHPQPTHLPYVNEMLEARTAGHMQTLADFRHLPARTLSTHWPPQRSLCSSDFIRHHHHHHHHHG


How the values were obtained:
human CD27 [1] = target: T2, human CD27 (human, UniProt P26842 21-260); assay: flow cytometry MFI, CD4+ T cells of human PBMC, N=2 donors
T2 construct: also called hCD27; HsCD27
Description: (§1) Labeled cells were washed by re-suspending them in 150 ul of staining buffer (SB) followed by centrifugation at 300 g for 5 minutes. Cells were then resuspended in 100 ul of SB containing primary anti-CD27 antibodies at various concentrations, incubated in the dark at 4° C. for 30 minutes, followed by washing and centrifugation steps as previously described. […] Cells were incubated for 30 minutes at 4° C. in the dark, followed by washing and centrifugation steps. Next, cells were stained with a cocktail of phenotypic antibodies for surface markers (CD3, CD4, CD8, CD11b) and incubated for 30 minutes at 4° C. in the dark, followed by washing and centrifugation steps. […] Samples were acquired in a LSR-Fortessa flow cytometer (BD Biosciences) using the high throughput sampler and data analyzed by FlowJo software (Tree Star Inc).

human CD27 [2] = target: T2, human CD27; assay: cell ELISA on human CD27 CHOK1 cells, hIgG1
Description: (§2) Purified antibodies were assayed for binding to human CD27 expressing CHOK1 cells using a cell-based ELISA format. Human CD27 expressing CHOK1 cells were plated in 96-well tissue-culture plates in 50 μl of DMEM/F12, 10% BCS (bovine calf serum) (CHO-K1 media). Cells were plated at either 2×10⁴ cells/well two days prior to the assay or 4×10⁴ cells/well one day prior to the assay. Media was removed from the wells prior to the assay followed by incubation of mAb in 100 μL fresh culture medium at a starting concentration of 10 μg/mL and 8 step 1:5 serial dilutions (hIgG4 antibodies) or starting concentration of 50 μg/mL and 8 step 1:5 serial dilutions (hIgG1 antibodies). The antibodies were incubated for 30-60 minutes at room temperature and washed 3 times with PBS/0.05% Tween 20 using a cell ELISA washing protocol on the Biotek EL405x Select CW plate washer.

human CD27 [3] = target: T2, human CD27; assay: flow cytometry on primary T cells
[4] = target: T1, His9G-tagged cynomolgus CD27 …; assay: SPR Biacore 4000, antibody captured on anti-human Fc, His9G-tagged CD27 injected, 1:1 fit;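 note: Double-referenced SPR (blank anti-Fc surface and buffer injection subtracted), KD derived from association and dissociation rate constants, with human and cynomolgus CD27 as analytes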
Excerpt: (§3) Flow cell spots modified with anti-human Fc antibody but lacking CD27 antibodies were used as reference. […] The chip surface was regenerated with a 30 second injection of 3M MgCl₂ after each injection cycle.
(§4) Data were double referenced by subtracting the response from a blank surface and that from a buffer injection and used for analyzing the rate constant of association (kₐ) and dissociation (kd), and the equilibrium dissociation constant KD. The resulting data sets were fitted with a Langmuir 1:1 binding model using the Biacore 4000 BIAevaluation software, version 1.0 (GE/Biacore).

[5] = target: T3, His9G-tagged human CD27 recombinant protein (human, UniProt P26842 21-191); assay: as above
T3 construct: In-house, transient transfection of HEK293 cells; also called Human CD27/His
Excerpt: as §3, §4

human CD27 [6] = target: T2, human CD27; assay: flow cytometry MFI, CD8+ T cells of human PBMC, N=2 donors
Description: as §1

human CD27 [7] = target: T2, human CD27; assay: cell ELISA on transfected CHO cells
Description: as §2

human CD27 [8] = target: T2, human CD27; assay: cell ELISA on human CD27 CHOK1 cells, hIgG4
Description: as §2

Row | EC50 (human CD27 [1]) [nM] | EC50 (human CD27 [2]) [nM] | EC50 relative to 131AVH6VL6-hIgG1 (human CD27 [3]) | Kd [4] [nM] | Kd [5] [nM] | EC50 (human CD27 [6]) [nM] | fold EC50 against 131AVH6VL6-hIgG1 (human CD27 [7]) [fold] | EC50 (human CD27 [8]) [nM] | Binder
1 | 0.0774 | 0.111 | ≤ 10 % above the EC50 of 131AVH6VL6-hIgG1 | 105 | 62.2 | 0.0721 | ≤ 2 |  | hCD27.131A VH9VL9 huIgG1 (antibody, V domains shown) VH: EIQLVQSGAEVKKPGASVKVSCKASGYTFTNYGMNWVRQAPGQGLKWMGWINTNTGEPTYAEEFKGRFTFTLDTSASTAYMELSSLRSEDTAVYYCAREGDAMDYWGQGTTVTVSS VL: DIQLTQSPSTLSASVGDRVTITCSASSSVSYMHWYQQKPGKAPKRWIYDTSKLASGVPARFSGSGSGTDYTLTISSLQPEDFATYYCQQWNSYPFTFGQGTKLEIK
2 |  |  |  | 31.2 | 43.4 |  |  |  | 131A chimera huIgG4 (antibody, V domains shown, also called chimeric mouse-human hCD27.131A huIgG4) VH: QIQLVQSGPELKKPGETVKISCKASGYTFTNYGMNWVKQAPGKGLKWMGWINTNTGEPTYAEEFKGRFAFSLETSATTAYLQINNLKNEDTATYFCAREGDAMDYWGQGTSVTVSS VL: QIVLTQSPAIMSASPGEKVTMTCSASSSVSYMHWYQQKSGTSPKRWIYDTSKLASGVPARFSGSGSGTSYSLTISSMEAEDAATYYCQQWNSYPFTFGSGTKLEIK
3 |  |  |  | 73 | 168 |  |  | 0.101 | hCD27.131A VH6VL6 huIgG4 (antibody, V domains shown) VH: EIQLVQSGAEVKKPGASVKVSCKASGYTFTNYGMNWVKQAPGQGLKWMGWINTNTGEPTYAEEFKGRFTFTLDTSISTAYMELSSLRSEDTAVYYCAREGDAMDYWGQGTTVTVSS VL: EIVLTQSPATLSLSPGERATLSCSASSSVSYMHWYQQKPGQAPKRWIYDTSKLASGVPARFSGSGSGTDYSLTISSLEPEDFAVYYCQQWNSYPFTFGQGTKLEIK
4 |  |  |  | 82 | 108 |  | ≤ 2 | 0.132 | hCD27.131A VH6VL7 huIgG4 (antibody, V domains shown) VH: EIQLVQSGAEVKKPGASVKVSCKASGYTFTNYGMNWVKQAPGQGLKWMGWINTNTGEPTYAEEFKGRFTFTLDTSISTAYMELSSLRSEDTAVYYCAREGDAMDYWGQGTTVTVSS VL: EIVLTQSPATLSLSPGERATLSCSASSSVSYMHWYQQKPGQAPKRWIYDTSKLASGVPARFSGSGSGTSYSLTISSLEPEDFATYYCQQWNSYPFTFGQGTKLEIK
5 |  |  |  | 55.2 | 99.1 |  | ≤ 2 | 0.103 | hCD27.131A VH6VL8 huIgG4 (antibody, V domains shown) VH: EIQLVQSGAEVKKPGASVKVSCKASGYTFTNYGMNWVKQAPGQGLKWMGWINTNTGEPTYAEEFKGRFTFTLDTSISTAYMELSSLRSEDTAVYYCAREGDAMDYWGQGTTVTVSS VL: EIVLTQSPATLSASPGERVTLSCSASSSVSYMHWYQQKPGQAPKRWIYDTSKLASGVPARFSGSGSGTDYSLTISSMEPEDFAVYYCQQWNSYPFTFGQGTKLEIK
6 |  |  |  | 58.2 | 65.7 |  | ≤ 2 | 0.042 | hCD27.131A VH7VL6 huIgG4 (antibody, V domains shown) VH: EIQLVQSGAEVKKPGASVKISCKASGYTFTNYGMNWVKQAPGQGLKWMGWINTNTGEPTYAEEFKGRFTFTLDTSATTAYLEISSLRSEDTAVYYCAREGDAMDYWGQGTTVTVSS VL: EIVLTQSPATLSLSPGERATLSCSASSSVSYMHWYQQKPGQAPKRWIYDTSKLASGVPARFSGSGSGTDYSLTISSLEPEDFAVYYCQQWNSYPFTFGQGTKLEIK
7 |  |  |  | 36.7 | 82.4 |  | ≤ 2 | 0.084 | hCD27.131A VH7VL7 huIgG4 (antibody, V domains shown) VH: EIQLVQSGAEVKKPGASVKISCKASGYTFTNYGMNWVKQAPGQGLKWMGWINTNTGEPTYAEEFKGRFTFTLDTSATTAYLEISSLRSEDTAVYYCAREGDAMDYWGQGTTVTVSS VL: EIVLTQSPATLSLSPGERATLSCSASSSVSYMHWYQQKPGQAPKRWIYDTSKLASGVPARFSGSGSGTSYSLTISSLEPEDFATYYCQQWNSYPFTFGQGTKLEIK
8 |  |  |  | 40.1 | 58.5 |  | ≤ 2 | 0.086 | hCD27.131A VH7VL8 huIgG4 (antibody, V domains shown) VH: EIQLVQSGAEVKKPGASVKISCKASGYTFTNYGMNWVKQAPGQGLKWMGWINTNTGEPTYAEEFKGRFTFTLDTSATTAYLEISSLRSEDTAVYYCAREGDAMDYWGQGTTVTVSS VL: EIVLTQSPATLSASPGERVTLSCSASSSVSYMHWYQQKPGQAPKRWIYDTSKLASGVPARFSGSGSGTDYSLTISSMEPEDFAVYYCQQWNSYPFTFGQGTKLEIK
9 |  |  |  | 59.7 | 132 |  | ≤ 2 | 0.097 | hCD27.131A VH8VL6 huIgG4 (antibody, V domains shown) VH: EIQLVQSGAEVKKPGASVKVSCKASGYTFTNYGMNWVKQAPGQGLKWMGWINTNTGEPTYAEEFKGRFTFTLDTSISTAYMELSSLRNEDTAVYYCAREGDAMDYWGQGTTVTVSS VL: EIVLTQSPATLSLSPGERATLSCSASSSVSYMHWYQQKPGQAPKRWIYDTSKLASGVPARFSGSGSGTDYSLTISSLEPEDFAVYYCQQWNSYPFTFGQGTKLEIK
10 |  |  |  | 76.8 | 89.3 |  | ≤ 2 | 0.088 | hCD27.131A VH8VL7 huIgG4 (antibody, V domains shown) VH: EIQLVQSGAEVKKPGASVKVSCKASGYTFTNYGMNWVKQAPGQGLKWMGWINTNTGEPTYAEEFKGRFTFTLDTSISTAYMELSSLRNEDTAVYYCAREGDAMDYWGQGTTVTVSS VL: EIVLTQSPATLSLSPGERATLSCSASSSVSYMHWYQQKPGQAPKRWIYDTSKLASGVPARFSGSGSGTSYSLTISSLEPEDFATYYCQQWNSYPFTFGQGTKLEIK
11 |  |  |  | 96.7 | 110 |  | ≤ 2 | 0.129 | hCD27.131A VH8VL8 huIgG4 (antibody, V domains shown) VH: EIQLVQSGAEVKKPGASVKVSCKASGYTFTNYGMNWVKQAPGQGLKWMGWINTNTGEPTYAEEFKGRFTFTLDTSISTAYMELSSLRNEDTAVYYCAREGDAMDYWGQGTTVTVSS VL: EIVLTQSPATLSASPGERVTLSCSASSSVSYMHWYQQKPGQAPKRWIYDTSKLASGVPARFSGSGSGTDYSLTISSMEPEDFAVYYCQQWNSYPFTFGQGTKLEIK
12 |  |  |  | 72.9 | 104 |  | ≤ 2 | 0.13 | hCD27.131A VH9VL9 huIgG4 (antibody, V domains shown) VH: EIQLVQSGAEVKKPGASVKVSCKASGYTFTNYGMNWVRQAPGQGLKWMGWINTNTGEPTYAEEFKGRFTFTLDTSASTAYMELSSLRSEDTAVYYCAREGDAMDYWGQGTTVTVSS VL: DIQLTQSPSTLSASVGDRVTITCSASSSVSYMHWYQQKPGKAPKRWIYDTSKLASGVPARFSGSGSGTDYTLTISSLQPEDFATYYCQQWNSYPFTFGQGTKLEIK
13 | 0.0664 |  |  | 40.4 | 29.2 | 0.0649 |  |  | Mouse Human Chimera CD27 131A-hIgG1 (antibody, V domains shown, also called chimeric mouse-human hCD27.131A huIgG1) VH: QIQLVQSGPELKKPGETVKISCKASGYTFTNYGMNWVKQAPGKGLKWMGWINTNTGEPTYAEEFKGRFAFSLETSATTAYLQINNLKNEDTATYFCAREGDAMDYWGQGTSVTVSS VL: QIVLTQSPAIMSASPGEKVTMTCSASSSVSYMHWYQQKSGTSPKRWIYDTSKLASGVPARFSGSGSGTSYSLTISSMEAEDAATYYCQQWNSYPFTFGSGTKLEIK
